This is an account of results in paper PMC8782820.

Usually stoichiometry N stands for the number of molecules, sites or subunits per partner or assembly.

In experiment [1] the target is hepcidin-imprinted silk fibroin (SilMA) nanoparticles, bioMIPs (Bombyx mori). The experiment in a line: ITC; hepcidin 28 μM (syringe, 50 μL) titrated into bioMIP or control SF-NPs 2.5 μM (220 μL) in 50 mM PBS pH 7.4, 25 °C, 16 injections of 3 μL; independent site model; triplicate. In general terms: In ITC the heat of successive injections is recorded.
The target is the same in experiment [2]. Description: competitive fluorescence assay; 30 μg/well of bioMIPs with hepcidin-depleted pooled serum (10 μL in 150 μL PBS 10 mM pH 7.4, 0.08% Tween-20), hepfitc 500 or 250 pmol, hepcidin competitor 0.11, 0.34, 0.68, 2.70 μM; displacement from ≥ 120 min of incubation; Hill fit.
Experiment [3] has the same target. Description: other fluorescence titration; 37.5 μg of bioMIPs or non-imprinted SF-NPs per well incubated with hepfitc 3 nM–2.5 μM in PBS 10 mM pH 7.4 with 0.08% Tween-20, read at 30 min; Langmuir fit; apparent.
Experiment [4] has the same target. Description: competitive fluorescence assay; bioMIPs incubated with hepfitc (500 pmol) alone or with one competitor (hepcidin; angiotensin, cytochrome c or human serum albumin 6 nmol); bound hepfitc at 30 min; triplicate.

On to “Hepcidin-25 (from UniProt P81172 60-84) (peptide)”, for which, in experiment [1], the Kd came to 360 nM, the dH is -14 kcal/mol and the stoichiometry N came to 2.1. In experiment [2], this substance displayed a Ka of 2.41e+06 M⁻¹ and a Kd of 410 nM.

Take “fluorescent hepcidin (hepfitc) (peptide)”: in experiment [3], the Kd came out at 1670 nM and the imprinting factor (hepfitc bound to the bioMIP with respect to that bound to the NIP) worked out at 2. This substance yielded a hepfitc bound at 30 min in experiment [4] of 125 pmol.
